According to patent US20230265151A1, “GIP/GLP1 CO-AGONIST COMPOUNDS” (priority 2020, published 2023):
*1 amine or outer side, *2 acyl side, *3 side chain or, on linkers, in order; H or OH if unused. Where no end group is shown, it is not given here. Side-chain parts run from the residue outwards. [ ]: non-standard residue; d: D form. The star is where a group is joined. αMePhe(2-F) = C[C@](N)(Cc1ccccc1F)C(=O)O; γGlu = O=C(O)[C@H](CCC(=O)[*:2])N[*:1]; C14 diacid = O=C(O)CCCCCCCCCCCCC(=O)*; αMeY = C[C@](N)(Cc1ccc(O)cc1)C(=O)O; αMeF = C[C@](N)(Cc1ccccc1)C(=O)O; αMeL = CC(C)C[C@](C)(N)C(=O)O; Orn = NCCC[C@H](N)C(=O)O; AEEA = NCCOCCOCC(=O)O; Aib = CC(C)(N)C(=O)O

T1: human GIP receptor (human, UniProt P48546 22-466)
T1 sequence (looked up): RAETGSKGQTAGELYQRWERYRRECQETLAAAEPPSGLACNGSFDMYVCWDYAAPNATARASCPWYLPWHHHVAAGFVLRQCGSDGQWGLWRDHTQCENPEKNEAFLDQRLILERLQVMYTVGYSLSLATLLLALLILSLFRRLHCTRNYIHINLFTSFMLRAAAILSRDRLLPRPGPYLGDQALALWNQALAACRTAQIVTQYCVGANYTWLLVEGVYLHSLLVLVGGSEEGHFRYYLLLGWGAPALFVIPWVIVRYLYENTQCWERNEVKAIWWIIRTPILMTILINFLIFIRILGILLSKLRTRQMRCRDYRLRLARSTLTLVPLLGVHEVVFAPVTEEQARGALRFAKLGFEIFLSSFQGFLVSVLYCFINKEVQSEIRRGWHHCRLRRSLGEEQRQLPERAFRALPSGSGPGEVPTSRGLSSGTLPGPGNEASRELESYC


Experiments:
Experiment in all cases: cell-based or functional assay
human glucagon receptor = human glucagon receptor (human, UniProt P47871 26-477)
human GIP receptor = target: T1, human GIP receptor
human GLP-1 receptor = human GLP-1 receptor (human, UniProt P43220 24-463)

| Binder | EC50, cAMP (human glucagon receptor) [nM] | EC50, cAMP (human GIP receptor) [nM] | EC50, cAMP (human GLP-1 receptor) [nM] | Emax, cAMP (human GLP-1 receptor) [%] | Emax, cAMP (human GIP receptor) [%] |
| --- | --- | --- | --- | --- | --- |
| Y[Aib]EGT[αMePhe(2-F)]TSDK([AEEA-AEEA-γGlu-C14 diacid])SI[αMeL]LD[Orn]IAQ[Aib]E[αMeF]IK([AEEA-AEEA-γGlu-C14 diacid])[αMeY]LIEGGPSSGAPPPS-NH2 [Example 110] | > 9950 | 0.0417 | 1.43 | 98.8 | – |
| Y[Aib]EGT[αMePhe(2-F)]TSDK([AEEA-AEEA-γGlu-C14 diacid])SI[αMeL]LD[Orn]IAQ[Aib]EFI[dE][αMeY]LIK([AEEA-AEEA-γGlu-C14 diacid])GGPSSGAPPPS-NH2 (N-terminus assumed; SMILES CC[C@H](C)[C@H](NC(=O)[C@H](CCCN)NC(=O)[C@H](CC(=O)O)NC(=O)[C@H](CC(C)C)NC(=O)[C@](C)(CC(C)C)NC(=O)[C@@H](NC(=O)[C@H](CO)NC(=O)[C@H](CCCCNC(=O)COCCOCCNC(=O)COCCOCCNC(=O)CC[C@H](NC(=O)CCCCCCCCCCCCC(=O)O)C(=O)O)NC(=O)[C@H](CC(=O)O)NC(=O)[C@H](CO)NC(=O)[C@@H](NC(=O)[C@](C)(Cc1ccccc1F)NC(=O)[C@@H](NC(=O)CNC(=O)[C@H](CCC(=O)O)NC(=O)C(C)(C)NC(=O)[C@@H](N)Cc1ccc(O)cc1)[C@@H](C)O)[C@@H](C)O)[C@@H](C)CC)C(=O)N[C@@H](C)C(=O)N[C@@H](CCC(N)=O)C(=O)NC(C)(C)C(=O)N[C@@H](CCC(=O)O)C(=O)N[C@@H](Cc1ccccc1)C(=O)N[C@H](C(=O)N[C@H](CCC(=O)O)C(=O)N[C@@](C)(Cc1ccc(O)cc1)C(=O)N[C@@H](CC(C)C)C(=O)N[C@H](C(=O)N[C@@H](CCCCNC(=O)COCCOCCNC(=O)COCCOCCNC(=O)CC[C@H](NC(=O)CCCCCCCCCCCCC(=O)O)C(=O)O)C(=O)NCC(=O)NCC(=O)N1CCC[C@H]1C(=O)N[C@@H](CO)C(=O)N[C@@H](CO)C(=O)NCC(=O)N[C@@H](C)C(=O)N1CCC[C@H]1C(=O)N1CCC[C@H]1C(=O)N1CCC[C@H]1C(=O)N[C@@H](CO)C(N)=O)[C@@H](C)CC)[C@@H](C)CC) [Example 107] | > 9950 | 0.0473 | 1.01 | 93.4 | 94.3 |
| Y[Aib]EGT[αMePhe(2-F)]TSDK([AEEA-AEEA-γGlu-C14 diacid])SI[αMeL]LD[Orn]IAQ[Aib]EFIK([AEEA-AEEA-γGlu-C14 diacid])[αMeY]LIEGGPSSGAPPPS-NH2 [Example 106] | > 9950 | 0.0385 | 0.296 | – | 98.7 |
| Y[Aib]EGT[αMePhe(2-F)]TSDK([AEEA-AEEA-γGlu-C14 diacid])SI[αMeL]LD[Orn]IAQ[Aib]EFI[dE][αMeY]LIEGGK([AEEA-AEEA-γGlu-C14 diacid])SSGAPPPS-NH2 (N-terminus assumed; SMILES CC[C@H](C)[C@H](NC(=O)[C@H](CCCN)NC(=O)[C@H](CC(=O)O)NC(=O)[C@H](CC(C)C)NC(=O)[C@](C)(CC(C)C)NC(=O)[C@@H](NC(=O)[C@H](CO)NC(=O)[C@H](CCCCNC(=O)COCCOCCNC(=O)COCCOCCNC(=O)CC[C@H](NC(=O)CCCCCCCCCCCCC(=O)O)C(=O)O)NC(=O)[C@H](CC(=O)O)NC(=O)[C@H](CO)NC(=O)[C@@H](NC(=O)[C@](C)(Cc1ccccc1F)NC(=O)[C@@H](NC(=O)CNC(=O)[C@H](CCC(=O)O)NC(=O)C(C)(C)NC(=O)[C@@H](N)Cc1ccc(O)cc1)[C@@H](C)O)[C@@H](C)O)[C@@H](C)CC)C(=O)N[C@@H](C)C(=O)N[C@@H](CCC(N)=O)C(=O)NC(C)(C)C(=O)N[C@@H](CCC(=O)O)C(=O)N[C@@H](Cc1ccccc1)C(=O)N[C@H](C(=O)N[C@H](CCC(=O)O)C(=O)N[C@@](C)(Cc1ccc(O)cc1)C(=O)N[C@@H](CC(C)C)C(=O)N[C@H](C(=O)N[C@@H](CCC(=O)O)C(=O)NCC(=O)NCC(=O)N[C@@H](CCCCNC(=O)COCCOCCNC(=O)COCCOCCNC(=O)CC[C@H](NC(=O)CCCCCCCCCCCCC(=O)O)C(=O)O)C(=O)N[C@@H](CO)C(=O)N[C@@H](CO)C(=O)NCC(=O)N[C@@H](C)C(=O)N1CCC[C@H]1C(=O)N1CCC[C@H]1C(=O)N1CCC[C@H]1C(=O)N[C@@H](CO)C(N)=O)[C@@H](C)CC)[C@@H](C)CC) [Example 108] | > 9950 | 0.0249 | 0.701 | 97.6 | 85.2 |
| YXEGTXTSDKSIXLDXIAQXKXIXXLIEGGPSSGAPPPS (Aib2, αMeF(2F)6, αMeL13, Orn16, Aib20, αMeF22, D-Glu24, αMeY25, K10 and K21: K(AEEA2-(γ-Glu)-CO-(CH2)12-CO2H), C-terminal NH2) [Example 109] | > 9950 | 0.0236 | 0.846 | – | 84.8 |
| YXEGTXTSDXSIXLDXKAQXEFIXXLIEGGKSSGAPPPS (Aib2, αMeF(2F)6, 4Pal10, αMeL13, Orn16, Aib20, D-Glu24, αMeY25, K17 and K31: K(AEEA2-CO-(CH2)12-CO2H), C-terminal NH2) [Example 9] | > 9950 | 0.0102 | 0.421 | – | – |
| YXEGTXTSDKSIXLDXIAQXKFIXXLIEGGPSSGAPPPS (Aib2, αMeF(2F)6, αMeL13, Orn16, Aib20, D-Glu24, αMeY25, K10 and K21: K(AEEA2-(γ-Glu)-CO-(CH2)12-CO2H), C-terminal NH2) [Example 105] | > 9950 | 0.0366 | 0.52 | – | – |
| YXEGTXTSDXSIXLDXKAQXEXIXXLIEGGKSSGAPPPS (Aib2, αMeF(2F)6, 4Pal10, αMeL13, Orn16, Aib20, 2Nal22, D-Glu24, αMeY25, K17 and K31: K(AEEA2-(γ-Glu)-CO-(CH2)12-CO2H), C-terminal NH2) [Example 99] | > 9950 | 0.0235 | 0.349 | – | – |
| YXEGTXTSDXSIXLDXKAQXGFIXXLIEGGKSSGAPPPS (Aib2, αMeF(2F)6, 4Pal10, αMeL13, Orn16, Aib20, D-Glu24, αMeY25, K17 and K31: K(AEEA2-(γ-Glu)-CO-(CH2)12-CO2H), C-terminal NH2) [Example 103] | > 9950 | 0.0305 | 2.1 | – | 92.8 |
| YXEGTXTSDXSIXLDXKAQXEFIGXLIEGGKSSGAPPPS (Aib2, αMeF(2F)6, 4Pal10, αMeL13, Orn16, Aib20, αMeY25, K17 and K31: K(AEEA2-(γ-Glu)-CO-(CH2)12-CO2H), C-terminal NH2) [Example 104] | > 9950 | 0.0361 | 0.417 | – | 94.9 |
| YXEGTXTSDXSIXLDGKAQXEFIXXLIEGGKSSGAPPPS (Aib2, αMeF(2F)6, 4Pal10, αMeL13, Aib20, D-Glu24, αMeY25, K17 and K31: K(AEEA2-(γ-Glu)-CO-(CH2)12-CO2H), C-terminal NH2) [Example 101] | > 9950 | 0.0297 | 2.94 | – | 92.1 |
| YXEGTXTSDXSIXLDXKAQXEFIXXLIEGGKSSGAPPPS (Aib2, αMeF(2F)6, 4CPhe10, αMeL13, Orn16, Aib20, D-Glu24, αMeY25, K17 and K31: K(AEEA2-(γ-Glu)-CO-(CH2)12-CO2H), C-terminal NH2) [Example 96] | > 9950 | 0.0484 | 6.81 | – | – |
| YXEGTXTSDXSIXLDXKAQXEFIXXLIEGGKSSGAPPPS (Aib2, αMeF(2F)6, ChA10, αMeL13, Orn16, Aib20, D-Glu24, αMeY25, K17 and K31: K(AEEA2-(γ-Glu)-CO-(CH2)12-CO2H), C-terminal NH2) [Example 98] | > 9950 | 0.0148 | 0.227 | – | – |
| YXEGTXTSDXSIXLDXKAQXEFIXXLIEGGKSSGAPPPS (Aib2, αMeF(2F)6, ChG10, αMeL13, Orn16, Aib20, D-Glu24, αMeY25, K17 and K31: K(AEEA2-(γ-Glu)-CO-(CH2)12-CO2H), C-terminal NH2) [Example 97] | > 9950 | 0.0276 | 0.683 | – | – |
| YXEGTXTSDXSIXLDXKAQXEFIXXLIEGGKSSGAPPPS (Aib2, αMeF(2F)6, Ac4c10, αMeL13, Orn16, Aib20, D-Glu24, αMeY25, K17 and K31: K(AEEA2-(γ-Glu)-CO-(CH2)12-CO2H), C-terminal NH2) [Example 95] | > 9950 | 0.0748 | 0.181 | – | – |
| YXEGTXTSDXSIXLDXKAQXEXIXXLIEGGKSSGAPPPS (Aib2, αMeF(2F)6, Ac5c10, αMeL13, Orn16, Aib20, αMeF22, D-Glu24, αMeY25, K17 and K31: K(AEEA2-(γ-Glu)-CO-(CH2)12-CO2H), C-terminal NH2) [Example 94] | > 9950 | 0.0132 | 2.1 | 97.4 | – |
